Laboratory results published in article PMC7347944.
“And” between values parts separate entries of the source, which are not always exact repeats. Equal values may be shown once.

How the values were obtained:
huPrP(23−144) (human) [1] = target: huPrP(23−144) (human) (UniProt P04156); assay: NMR titration
huPrP(23−144) (human) [2] = target: huPrP(23−144) (human) (UniProt P04156); assay: co-sedimentation

For “α-synuclein oligomers (from UniProt P37840 1-140) (complex)”, the stoichiometry N (αSyn:huPrP molar ratio) (huPrP(23−144) (human) [1]) was 1.45 and 0.92 and the stoichiometry N (αSyn:huPrP(23−144)) (huPrP(23−144) (human) [2]) was 0.96.
